Results taken from patent US20170137513A1.

Molecular target: T1, monkey CD22 (Rhesus monkey) (UniProt H9G1X2)
T1 sequence: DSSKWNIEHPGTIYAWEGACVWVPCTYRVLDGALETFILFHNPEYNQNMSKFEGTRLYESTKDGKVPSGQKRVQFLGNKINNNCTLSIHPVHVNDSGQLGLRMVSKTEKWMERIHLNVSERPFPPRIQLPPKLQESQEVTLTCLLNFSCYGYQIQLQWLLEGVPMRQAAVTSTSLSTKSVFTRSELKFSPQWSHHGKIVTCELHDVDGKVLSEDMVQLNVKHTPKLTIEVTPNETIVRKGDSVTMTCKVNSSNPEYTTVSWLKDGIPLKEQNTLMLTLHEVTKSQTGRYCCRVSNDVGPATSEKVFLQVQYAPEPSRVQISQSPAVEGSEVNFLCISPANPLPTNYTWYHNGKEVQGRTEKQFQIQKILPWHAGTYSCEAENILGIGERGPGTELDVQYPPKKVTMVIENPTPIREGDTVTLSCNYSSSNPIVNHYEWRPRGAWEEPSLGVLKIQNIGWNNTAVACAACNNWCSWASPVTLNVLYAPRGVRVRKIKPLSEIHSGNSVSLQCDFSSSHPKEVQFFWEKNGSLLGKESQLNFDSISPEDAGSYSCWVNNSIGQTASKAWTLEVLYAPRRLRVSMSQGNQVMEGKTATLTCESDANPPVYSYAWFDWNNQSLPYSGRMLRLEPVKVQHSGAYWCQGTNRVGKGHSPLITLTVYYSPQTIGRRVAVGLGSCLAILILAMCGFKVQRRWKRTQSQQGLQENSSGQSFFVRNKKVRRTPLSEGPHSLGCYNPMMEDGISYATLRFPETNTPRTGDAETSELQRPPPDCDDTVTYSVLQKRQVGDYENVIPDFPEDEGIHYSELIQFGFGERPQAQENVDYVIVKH
Test: flow cytometry, direct immunofluorescence on Rhesus monkey PBMC

B1: RFB4 monoclonal antibody (antibody, V domains shown)
VH: EVQLVESGGGLVKPGGSLKLSCAASGFAFSIYDMSWVRQTPEKRLEWVAYISSGGGTTYYPDTVKGRFTISRDNAKNTLYLQMSSLKSEDTAMYYCARHSGYGSSYGVLFAYWGQGTLVTVSA
VL: DIQMTQTTSSLSASLGDRVTISCRASQDISNYLNWYQQKPDGTVKLLIYYTSILHSGVPSRFSGSGSGTDYSLTISNLEQEDFATYFCQQGNTLPWTFGGGTKLEIK
Which percent positive cells does the source give for B1 here?
The percent positive cells was 31.3%.
